From patent publication US20150322137A1 (EVEC, published 2015)

B1: EV046115b (antibody, human IgG1, lambda, V domains shown)
VH: QVQLVQSGAEVKKPGASVKVSCKASGYTFSVYGISWVRQAPGHGLEWMGWISAYNGDRGYAQKVQGRITMTTDTSASTAYMELRSLTSDDTAVYYCATTSSGVPGIYWGQGSLVTVSS
VL: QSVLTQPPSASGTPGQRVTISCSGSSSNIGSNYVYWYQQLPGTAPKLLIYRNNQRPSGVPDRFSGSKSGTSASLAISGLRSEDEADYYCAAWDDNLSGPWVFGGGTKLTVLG
B2: EV046124 (antibody, human IgG1, lambda, V domains shown)
VH: QVQLVQSGTELKKPGASVKVSCKASGYTFTDYSMHWLRQAPGESLEWMGWVNGGPLDTKYSPTFQDRVSFSRDVFATTAYMDLSSLGPEDTAVYYCARGWGITAYRGDAFDLWGQGTMVIVSS
VL: SFVLTQPPSVSVAPGKSARITCGASNIESKSVHWYQQKPGQAPVVVVYDDDDRPSGIPERFSGSNSGNTATLIINRVEVGDEADYYCQVWDSTSDMYVFGAGTKVTVLG
B3: EV046135 (antibody, human IgG1, lambda, V domains shown)
VH: QEQLVESGGDLVKPGGSLRITCAASGFTLSGYALVWVRQAPGRGLEWIADITASSTYINYAASVKGRFTISRDNAQSSLFLQMSSLRADDTGVYFCARLPHLPGFFDLWGRGTLVSVSS
VL: QSVLTQPPSVSGAPGQRVTISCTGNSSNIGAGYDVNWYQHLPGTAPKLLISVNTNRPSGVPDRFSGSMSGTSASLAITGLQAEDEADYYCQSYDRRLSGYVFGTGTKVTVLG
B4: EV046136 (antibody, human IgG1, kappa, V domains shown)
VH: QVQLVQSGAEMKKPGASVKVSCKASGYTFTDYFIHWVRQAPGQGLEWMGWVNPNSGATNYAQKFQGRVTMTGDTSLSAAYVDLSRLSSDDSAVYYCARDRGLGISSTRNDAFDIWGQGTTVTVSS
VL: DIQLTQSPSSLSASVGDRVTITCQPSQGIRNFLNWYQQKPGKAPNLLIYDASNLETGVASRFSGSGSGTHFTLTISSLQPEDIATYFCQQYHSLPLTFGGGTKVEIKR
B5: EV046130 (antibody, human IgG1, lambda, V domains shown)
VH: QVQLVESGGGVAQPGRSLRLSCAASGFTLSNYGMHWVRQAPGKGLEWVAVIWYDGRNKYYADSVKGRFTISRDDFKNTLDLQMNSLRAEDTAVYYCARDQHAGITMIEDWGQGTLVTVSS
VL: QSALTQPPSASGSPGQSVTISCTGTSSDVGYFKYVSWYQQHPGKAPKLLIYEVSKRPSGVPDRFSGSRSGNTASLTVSGLQADDEADYYCGSYAGNNNIIFGGGTKLTVLG

The binders below were run against T1, F protein of human metapneumovirus strain JPS02-76 (type B1), on infectious virus (human metapneumovirus, strain JPS02-76 …, UniProt Q6WB98 19-539) (assay: cell-based or functional assay).

| Binder | IC50, cell-to-cell spread inhibitory activity (LLC-MK2 cells stably expressing TMPRSS2) [ng/mL] | IC90, cell-to-cell spread inhibitory activity (LLC-MK2 cells stably expressing TMPRSS2) [ng/mL] |
| --- | --- | --- |
| B1 | 134 | 617 |
| B2 | 48.2 | 260 |
| B3 | 30.8 | 230 |
| B4 | 52.2 | 212 |
| B5 | 34.9 | 147 |

Biological target: T1, F protein of human metapneumovirus …
Test: cell-based or functional assay
Remark: another data set of the same source

| Binder | IC60, neutralizing activity (hMPV infection of LLC-MK2 cells; GraphPad Prism 6) [ng/mL] |
| --- | --- |
| B1 | 376 |
| B2 | 423 |
| B3 | 571 |
| B4 | 419 |
| B5 | 354 |

What follows are binders tested against T2, F protein of human metapneumovirus strain JPS03-178 (type A2), on infectious virus (human metapneumovirus, strain JPS03-178 …) (assay: cell-based or functional assay).

| Binder | IC60, neutralizing activity (hMPV infection of LLC-MK2 cells; GraphPad Prism 6) [ng/mL] |
| --- | --- |
| B1 | 2710 |
| B2 | 53.9 |
| B3 | 47.1 |
| B4 | 358 |
| B5 | 2010 |

Each binder was assayed against T3, F protein of human metapneumovirus strain JPS05-21 (type B2), on infectious virus (human metapneumovirus, strain JPS05-21 …) (assay: cell-based or functional assay).

| Binder | IC60, neutralizing activity (hMPV infection of LLC-MK2 cells; GraphPad Prism 6) [ng/mL] |
| --- | --- |
| B1 | 133 |
| B2 | 305 |
| B3 | 268 |
| B4 | 670 |
| B5 | 132 |

Each binder was assayed against T4, F protein of human metapneumovirus strain JPS03-180 (type A1), on infectious virus (human metapneumovirus, strain JPS03-180 …) (assay: cell-based or functional assay).

| Binder | IC60, neutralizing activity (hMPV infection of LLC-MK2 cells; GraphPad Prism 6) [ng/mL] |
| --- | --- |
| B1 | 400 |
| B2 | 102 |
| B3 | 440 |
| B4 | 358 |
| B5 | 254 |

Biological target: T1, F protein of human metapneumovirus …
Test: cell-based or functional assay
Remark: another data set of the same source

| Binder | IC50, neutralizing activity (hMPV infection of LLC-MK2 cells) [µg/mL] |
| --- | --- |
| B1 | 0.27 |
| B2 | 0.29 |
| B3 | 0.37 |
| B4 | 0.31 |
| B5 | 0.23 |

Biological target: T3, F protein of human metapneumovirus …
Test: cell-based or functional assay
Remark: another data set of the same source

| Binder | IC50, neutralizing activity (hMPV infection of LLC-MK2 cells) [µg/mL] |
| --- | --- |
| B1 | 0.099 |
| B2 | 0.24 |
| B3 | 0.22 |
| B4 | 0.46 |
| B5 | 0.089 |

Biological target: T4, F protein of human metapneumovirus …
Test: cell-based or functional assay
Remark: another data set of the same source

| Binder | IC50, neutralizing activity (hMPV infection of LLC-MK2 cells) [µg/mL] |
| --- | --- |
| B1 | 0.29 |
| B2 | 0.07 |
| B3 | 0.35 |
| B4 | 0.29 |
| B5 | 0.21 |

Biological target: T2, F protein of human metapneumovirus …
Test: cell-based or functional assay
Remark: another data set of the same source

| Binder | IC50, neutralizing activity (hMPV infection of LLC-MK2 cells; GraphPad Prism 6) [ng/mL] |
| --- | --- |
| B1 | 2280 |
| B2 | 40.7 |
| B3 | 31.6 |
| B4 | 318 |
| B5 | 1950 |

Biological target: T3, F protein of human metapneumovirus …
Test: cell-based or functional assay
Remark: another data set of the same source

| Binder | IC50, neutralizing activity (hMPV infection of LLC-MK2 cells; GraphPad Prism 6) [ng/mL] |
| --- | --- |
| B1 | 108 |
| B2 | 255 |
| B3 | 213 |
| B4 | 537 |
| B5 | 105 |

Biological target: T4, F protein of human metapneumovirus …
Test: cell-based or functional assay
Remark: another data set of the same source

| Binder | IC50, neutralizing activity (hMPV infection of LLC-MK2 cells; GraphPad Prism 6) [ng/mL] |
| --- | --- |
| B1 | 322 |
| B2 | 76.7 |
| B3 | 348 |
| B4 | 318 |
| B5 | 220 |

Biological target: T1, F protein of human metapneumovirus …
Test: cell-based or functional assay
Remark: another data set of the same source

| Binder | IC90, neutralizing activity (hMPV infection of LLC-MK2 cells; GraphPad Prism 6) [ng/mL] |
| --- | --- |
| B1 | 2300 |
| B2 | 952 |
| B3 | 1440 |
| B4 | 895 |
| B5 | 714 |

Biological target: T2, F protein of human metapneumovirus …
Test: cell-based or functional assay
Remark: another data set of the same source

| Binder | IC90, neutralizing activity (hMPV infection of LLC-MK2 cells; GraphPad Prism 6) [ng/mL] |
| --- | --- |
| B1 | 5740 |
| B2 | 188 |
| B3 | 277 |
| B4 | 605 |
| B5 | 2300 |

Biological target: T3, F protein of human metapneumovirus …
Test: cell-based or functional assay
Remark: another data set of the same source

| Binder | IC90, neutralizing activity (hMPV infection of LLC-MK2 cells; GraphPad Prism 6) [ng/mL] |
| --- | --- |
| B1 | 345 |
| B2 | 677 |
| B3 | 748 |
| B4 | 1780 |
| B5 | 358 |

Biological target: T4, F protein of human metapneumovirus …
Test: cell-based or functional assay
Remark: another data set of the same source

| Binder | IC90, neutralizing activity (hMPV infection of LLC-MK2 cells; GraphPad Prism 6) [ng/mL] |
| --- | --- |
| B1 | 1030 |
| B2 | 365 |
| B3 | 1240 |
| B4 | 605 |
| B5 | 486 |
